Reference: patent US20190240316A1 (VANDERBILT UNIVERSITY, published 2019)

B1: mAb D25 (antibody, V domains shown)
VH: QVQLVQSGAEVKKPGSSVMVSCQASGGPLRNYIINWLRQAPGQGPEWMGGIIPVLGTVHYAPKFQGRVTITADESTDTAYIHLISLRSEDTAMYYCATETALVVSTTYLPHYFDNWGQGTLVTVSS
VL: DIQMTQSPSSLSAAVGDRVTITCQASQDIVNYLNWYQQKPGKAPKLLIYVASNLETGVPSRFSGSGSGTDFSLTISSLQPEDVATYYCQQYDNLPLTFGGGTKVEIKR
B2: mAb 10F13 (antibody, V domains shown)
VH: QVQLVQSGGGVVQPGRSLRLSCAASGFPFRIYSMHWVRQAPGKGLEWVALISYDGTNKQYADSVNGRFTISRDNSENTMYLQMNSLRPEDTAIYYCATDIVELVTATDYWGQGTLVTVSS
VL: AVVTQSPGTLSLSPGDRATLSCRASQSVSTSLGWYQQKPGQSPRLLIYGTSRRATGVPDRFSGSGSETDFTLTISRLEPEDFSVYYCQQYGSSPYTFGQGTRLEIK
notes: The printed light chain has an unusual N-terminal part
B3: mAb 13A8 (antibody, V domains shown)
VH: QVQLVESGGGVVQPGKSLRLSCAASGYIFSSYDMHWVRQAPGKGLEWVAVISFDGTTQHYADSVRGRFTVSRDNSQNTVFLQMNSLRPEDTAVYYCVKEYVIVSTFFDYWGQGTLVTVSS
VL: DIVMTQSPSSLSASVGDRVTITCRASQGIRNALGWYQHKPGKAPKVLIYAASRLQSGVPSRFSGSGSGTDFTLTISSLQPEDFATYYCLQDFNYPWTFGHGTKVEIK
B4: mAb 9J5 (antibody, V domains shown)
VH: QVQLVQSGAEVKKPGSSVTVSCKASGGSFTNYAFSWVRQAPGQGLEWMGGIIPLLNMPNYAQKFRGRVTISADQSTTTAYMELSRLTSEDTAIYFCARGGQVGDFIVLRHFDSWGQGTLVTVSS
VL: TLSCRASESVSNYLAWYQQKPGQTPRLLIYGASTRATGIPARFSGSGSGSEFTLTISSLQSEDFAVYYCQQYNDWPRFSFGQGTKLEIK
B5: mAb 3J20 (antibody, V domains shown)
VH: EVQLVESGGGLVQPGGSLRLSCAASGFTFSSFTMNWVRQAPGKGLQWVSTISGSGGLTYYADSVKGRFTISRDNSKNTLSLQMNSLRAEDTAVYYCARDLEFTVTSYGGYYFEYWGQGTLVTVSS
VL: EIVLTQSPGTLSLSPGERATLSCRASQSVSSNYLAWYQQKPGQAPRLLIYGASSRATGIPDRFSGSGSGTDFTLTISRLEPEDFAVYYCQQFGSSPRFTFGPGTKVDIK
B6: motavizumab (antibody, V domains shown)
VH: QVTLRESGPALVKPTQTLTLTCTFSGFSLSTAGMSVGWIRQPPGKALEWLADIWWDDKKHYNPSLKDRLTISKDTSKNQVVLKVTNMDPADTATYYCARDMIFNFYFDVWGQGTTVTVSS
VL: DIQMTQSPSTLSASVGDRVTITCSASSRVGYMHWYQQKPGKAPKLLIYDTSKLASGVPSRFSGSGSGTEFTLTISSLQPDDFATYYCFQGSGYPFTFGGGTKVEIK
B7: mAb 14C16 (antibody, V domains shown)
VH: QVQLGESGPALVKPTQTLTLTCTFSGFSLSTSEMCVSWIRQPPGKALEWLALIDWDGDKFFSTSLQSRLTISKSPSNNQVVLTMTNMDPVDSGTYFCARSTVRRSSGYYYYVLDVWGQGTLVTVSS
VL: QIVMTQSPSSLSASVGDRVTISCRASQSIGTYVNWYQHKPGKAPKVLISGASNLHSGVPSRFSGSGSGTDFTLTISSLQPEDFATYYCQQSYSPLTFGGGTTVEMK
B8: mAb 14N4 (antibody, V domains shown)
VH: QVQLVESGGGLIQPGGSLRLSCAVSGFTVSSKYMTWVRQAPGKGLEWVSVIYGGGSTYYADSVVGRFTISRDNSKNTLYLQMNSLRAEDTAVYYCASRLGVRATTGDLDYWGQGTLVTVSS
VL: QIVMTQSPSTLSASVGDRVTITCRASQSISSWLAWYQQKPGKAPKLLIYDASSLESGVPSRFSGSGSGTEFTLTISSLQPDDFATYYCQQYNTYSWWTFGQGTKVEIK
B9: mAb 4B6 (antibody, V domains shown)
VH: QVQLVQSGGGLAQPGRSLRLSCRASGFTFGDFNMNWFRQAPGKGLEWVGFIRRKAFGGATEYAASVKGRLTISRDDSKSIAYLQMNSLKTEDTAVYYCTRERGYVGSGGPFFDYWGQGTLVTVSS
VL: QAVVTQPPSVSGAPGQRVTISCTGSSSNIGAGYDVHWYQQLPGTAPKLLIYGDSNRPSGVPDRFSGSSSGTSASLAITGLQAEDEADYYCQSYDNSLSGSVFGTGTKVTVL
B10: mAb 12I1 (antibody, V domains shown)
VH: QVQLVQSGGGVVQPGQSLRLSCAASGFSFSDYPIHWVRQAPGKGLEWVAGISYYGSNKFYADSVRGRFTISRDTSKNTFNLQMNSLKSEDTAVYYCARDGNPPRFLEYFDYWGQGTLVTVSS
VL: QPVVTQPRSVSGSPGQSVTISCTGSSSDVGGYNFVSWYRHHPGKAPKLLIYHVTKRPSGVPDRFSGSKSGNTASLTISGLQAEDEADYYCCSYAGSYTYVLFGGGTKLTVL
notes: Non-neutralizing, antigenic site VII

Tests used:
[1] = molecular target: F protein on infectious RSV strain A2 (human respiratory syncytial virus …, UniProt P03420 26-574); experiment: cell-based or functional assay
Target sequence in this assay (P03420 26-574): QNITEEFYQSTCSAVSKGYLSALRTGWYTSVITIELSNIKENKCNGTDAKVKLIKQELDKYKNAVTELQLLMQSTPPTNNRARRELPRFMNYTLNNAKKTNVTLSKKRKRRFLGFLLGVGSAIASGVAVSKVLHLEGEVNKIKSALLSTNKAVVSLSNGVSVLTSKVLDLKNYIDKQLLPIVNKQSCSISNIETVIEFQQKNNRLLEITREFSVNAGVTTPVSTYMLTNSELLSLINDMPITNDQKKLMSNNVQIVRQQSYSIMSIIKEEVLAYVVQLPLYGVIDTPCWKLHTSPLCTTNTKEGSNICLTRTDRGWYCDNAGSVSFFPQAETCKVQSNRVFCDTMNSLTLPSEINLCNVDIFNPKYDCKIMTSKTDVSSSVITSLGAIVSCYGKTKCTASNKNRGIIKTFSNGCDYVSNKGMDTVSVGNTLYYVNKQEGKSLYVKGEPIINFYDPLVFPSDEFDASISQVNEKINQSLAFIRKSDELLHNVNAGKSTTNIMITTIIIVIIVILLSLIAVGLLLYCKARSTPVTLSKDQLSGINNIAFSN

[2] = molecular target: T1, recombinant post-fusion RSV strain A2 F protein (human respiratory syncytial virus …, UniProt P03420 26-109; P03420 147-513); experiment: ELISA on coated antigen
T1 construct: Viral fusion glycoprotein, trimer of protomers (each cleaved into two disulfide-linked fragments); also called RSV A2; post-fusion RSV A2 F

[3] = molecular target: T2, post-fusion F protein from RSV strain 18537 B (human respiratory syncytial virus …, UniProt P13843 26-109; P13843 147-513); experiment: ELISA on coated antigen
T2 construct: also called RSV 18537 B; RSV 18537 B post-fusion F

[4] = molecular target: F protein on infectious RSV strain A2 (human respiratory syncytial virus …, UniProt P03420 26-574); experiment: cell-based or functional assay; remark: listed apart in the source
Target sequence in this assay (P03420 26-574): as above

T1 sequence (P03420 147-513, one chain of several): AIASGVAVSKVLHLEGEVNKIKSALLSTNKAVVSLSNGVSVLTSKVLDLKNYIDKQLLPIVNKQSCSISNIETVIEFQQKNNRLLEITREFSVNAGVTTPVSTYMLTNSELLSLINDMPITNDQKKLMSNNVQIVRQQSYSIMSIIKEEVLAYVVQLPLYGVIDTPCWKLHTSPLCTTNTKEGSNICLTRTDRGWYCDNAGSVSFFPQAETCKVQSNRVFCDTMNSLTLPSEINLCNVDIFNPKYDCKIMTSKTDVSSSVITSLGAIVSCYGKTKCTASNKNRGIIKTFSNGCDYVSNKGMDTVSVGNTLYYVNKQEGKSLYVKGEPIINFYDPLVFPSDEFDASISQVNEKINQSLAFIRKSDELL
T2 sequence (P13843 26-109, chain 1 of 2): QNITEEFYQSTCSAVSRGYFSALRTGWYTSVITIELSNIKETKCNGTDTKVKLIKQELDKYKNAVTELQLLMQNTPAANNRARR
T2 sequence (P13843 147-513, chain 2 of 2): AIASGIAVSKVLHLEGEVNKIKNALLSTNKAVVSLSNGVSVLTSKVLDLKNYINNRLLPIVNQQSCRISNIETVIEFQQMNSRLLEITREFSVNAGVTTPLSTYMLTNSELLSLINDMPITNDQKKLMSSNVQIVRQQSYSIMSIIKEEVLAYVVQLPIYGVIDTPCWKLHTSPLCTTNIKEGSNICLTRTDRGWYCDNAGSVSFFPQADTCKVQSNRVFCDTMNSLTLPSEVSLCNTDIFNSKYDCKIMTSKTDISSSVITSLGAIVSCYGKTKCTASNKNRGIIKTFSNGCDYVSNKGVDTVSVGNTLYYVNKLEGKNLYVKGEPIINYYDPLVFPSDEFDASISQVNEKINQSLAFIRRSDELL

Binder | Neutralization (IC50; ng/mL) RSV A2, plaque-reduction assay [1] [ng/mL] | EC50 [2] [µg/mL] | EC50 [3] [µg/mL] | Neutralization (IC50; ng/mL) RSV A2, plaque-reduction assay [4] [ng/mL]
B1 | 21 | – | – | –
B2 | – | 0.017 | 0.021 | –
B3 | – | 0.082 | 0.064 | 55
B4 | – | 0.03 | 0.04 | > 100000
B5 | – | 0.084 | 0.05 | 377
B6 | 123 | 0.03 | 0.035 | –
B7 | – | 0.019 | 0.02 | > 100000
B8 | – | 0.078 | 0.057 | 695
B9 | – | 0.024 | 0.024 | > 100000
B10 | – | 0.026 | 0.033 | > 100000
